Experimental data published in patent publication US20250101446A1, “METHOD FOR GENETIC TRANSFORMATION OF PLANT ORGANELLE GENOME AND USES THEREOF” (Solar Grants Biotechnology Inc., priority 2022, published 2025).

System: LPS-stimulated PBMCs
Assay: Cytokine secretion from LPS-stimulated PBMCs treated with plantakines (multiplex Luminex)
Type: cell-based, human
Method: The bioactivity of our plantakines IL-37b and IL-38 was assessed by monitoring the secretion of 11 cytokines, generally regarded as inflammatory markers, from PBMCs stimulated with an IA. Freshly isolated human PBMCs were subjected to various treatments-combinations of the IAs with the plantakines at different concentrations. Two different model IAs were used, either the bacterial lipopolysaccharides (LPS) or a lectin from Phaseolus vulgaris (phytohaemagglutinin, PHA); each of the IAs was applied onto cells separately, each IA was applied at two concentrations: […]; PHA at 5 and 10 μg/mL. Each IA at each concentration was applied in combination with one of the two plantakines, each of them at three different concentrations: 1, 10 and 100 ng/ml of the monomeric forms present in the purified extracts. Also included were treatments comprised of either IA at their lower concentrations, in combination with both plantakines at 10 ng/ml concentration in order to assess possible synergistic effects. Cells with only IAs applied represented the reference (positive controls for each concentration), cells without any treatment represented the basal level (negative control). The levels of eleven different pro-inflammatory cytokines secreted into the medium from the PBMCs-GM-SCF, IFNγ. TNFα, IL-1α, IL-1β, IL-6, IL-8, IL-22, IL12, IL-17 and IL-10 were compared between the treatments and the controls. We applied Generalized Estimating Equation (GEE) model for the statistical data analysis. This statistical approach allows for nested observations and was used to test the effects of the plantakines IL-37b and IL-38 and their dosage in the context of IA-stimulated PBMCs inflammatory responses.
After isolation, the PBMCs from each donor separately were counted, plated in equal numbers per well and stimulated for 24 h with the applied treatments. Control wells on the plate contained media only (as basal level controls), and LPS and PHA (as positive controls at their corresponding concentrations). After the 24 h treatments stimulation the PBMCs' culture supernatants were used in the multiplex Luminex platform-assisted analysis of the concentrations of the 11 secreted pro-inflammatory cytokines.
The whole blood from 5 random human donors was collected in ACD Vacutainer tubes and immediately processed for isolation of PBMCs by gradient density centrifugation using Lympholyte. […] 5% CO2 and >80% humidity. PBMCs were treated with one of two IAs at 2 concentrations each ([…]; PHA at 5 and 10 μg/mL) in combination with two test items (plant-produced IL-37b or IL-38) at three concentrations each (1, 10 and 100 ng/ml), based on the monomeric form amounts estimated with densitometry (ImageJ). Each treatment was tested in triplicates. Control wells contained media only (negative control, basal level of detection) and the examined IAs at both tested concentrations as the positive controls. The PBMCs were incubated for 24 hours after the stimulation for analysis of the levels of the secreted cytokines that were determined in the culture supernatant using a multiplex immunoassay (MAGPix®, Luminex), analytes were selected from the Milliplex panel HCYTOMAG-60K, sensitivity range of […]. All parameters of the Milliplex panel cytokines analysis using Luminex platform were validated (Millipore-Sigma).
Non-linear logarithm transformation was performed to address non-normality of distribution of Luminex-derived numeric data. Generalized Estimating Equation (GEE) method was used in the analysis of nested (correlated) structure of the data. Secreted inflammatory cytokine values were used as dependent variables and test item (plantakines) with dosage as independent predictors (factors). Separate analyses were conducted for each of the 11 monitored cytokines and each inflammatory agent/concentration combination. Analysis was performed using SPSS software version 27 using the level of significance 0.05 (p-values <0.05 are reported as statistically significant). […]

B1: plant-produced recombinant human IL-38, mature form C2-W152 with C-terminal 7xHIS tag (ligand)
chain: CSLPMARYYIIKYADQKALYTRDGQLLVGDPVADNCCAEKICILPNRGLARTKVPIFLGIQGGSRCLACVETEEGPSLQLEDVNIEELYKGGEEATRFTFFQSSSGSAFRLEAAAWPGWFLCGPAEPQQPVQLTKESEPSARTKFYFEQSWHHHHHHH
notes: range 2-152; also called rhIL-38; plantakine IL-38
1 ng/mL, LPS 150 pg/mL
  secreted GM-CSF level modulation vs positive control: −59.4%, p < 0.001
  secreted IL-1α level modulation vs positive control: −25.9%, p < 0.001
  secreted IL-1β level modulation vs positive control: −27.4%, p < 0.001
  secreted IL-6 level modulation vs positive control: −7.7%, p = 0.178
  secreted IL-8 level modulation vs positive control: 22.1%, p = 0.625
  secreted IL-10 level modulation vs positive control: −14.8%, p = 0.040
  secreted IL-12 level modulation vs positive control: 14.9%, p = 0.607
  secreted IL-17 level modulation vs positive control: −21.3%, p = 0.004
  secreted IL-22 level modulation vs positive control: −38.1%, p = 0.065
  secreted TNFα level modulation vs positive control: −36.9%, p = 0.035
1 ng/mL, LPS 300 pg/mL
  secreted GM-CSF level modulation vs positive control: −14.1%, p = 0.118
  secreted IFNγ level modulation vs positive control: −16.5%, p = 0.006
  secreted IL-1α level modulation vs positive control: −7.7%, p = 0.178
  secreted IL-1β level modulation vs positive control: −13.1%, p < 0.001
  secreted IL-6 level modulation vs positive control: −5.8%, p = 0.323
  secreted IL-10 level modulation vs positive control: 6.2%, p = 0.006
  secreted IL-12 level modulation vs positive control: 1.9%, p = 0.906
  secreted IL-17 level modulation vs positive control: −28.8%, p < 0.001
  secreted IL-22 level modulation vs positive control: −40.0%, p < 0.001
  secreted TNFα level modulation vs positive control: −49.3%, p = 0.184
10 ng/mL, LPS 150 pg/mL
  secreted GM-CSF level modulation vs positive control: 7.3%, p = 0.230
  secreted IFNγ level modulation vs positive control: −16.5%, p = 0.012
  secreted IL-1α level modulation vs positive control: −14.8%, p < 0.001
  secreted IL-1β level modulation vs positive control: −13.1%, p = 0.002
  secreted IL-6 level modulation vs positive control: 0.0%, p = 1.000
  secreted IL-8 level modulation vs positive control: 8.3%, p = 0.639
  secreted IL-10 level modulation vs positive control: −3.9%, p = 0.264
  secreted IL-12 level modulation vs positive control: 51.1%, p = 0.522
  secreted IL-17 level modulation vs positive control: −16.5%, p = 0.012
  secreted IL-22 level modulation vs positive control: −29.4%, p = 0.008
  secreted TNFα level modulation vs positive control: −44.0%, p = 0.116
10 ng/mL, LPS 300 pg/mL
  secreted GM-CSF level modulation vs positive control: 29.1%, p < 0.001
  secreted IFNγ level modulation vs positive control: −24.4%, p = 0.018
  secreted IL-1α level modulation vs positive control: 2.0%, p = 0.550
  secreted IL-1β level modulation vs positive control: −2.0%, p = 0,550
  secreted IL-6 level modulation vs positive control: 2.0%, p = 0.736
  secreted IL-8 level modulation vs positive control: −5.8%, p = 0.469
  secreted IL-10 level modulation vs positive control: 8.3%, p = 0.178
  secreted IL-12 level modulation vs positive control: 10.6%, p = 0.586
  secreted IL-17 level modulation vs positive control: −31.6%, p < 0.001
  secreted IL-22 level modulation vs positive control: −45.0%, p < 0.001
  secreted TNFα level modulation vs positive control: −40.5%, p = 0.311
100 ng/mL, LPS 150 pg/mL
  secreted GM-CSF level modulation vs positive control: 21.2%, p = 0.013
  secreted IFNγ level modulation vs positive control: −40.5%, p = 0.008
  secreted IL-1α level modulation vs positive control: −3.9%, p = 0.380
  secreted IL-1β level modulation vs positive control: −13.1%, p = 0.002
  secreted IL-6 level modulation vs positive control: 0.0%, p = 1.000
  secreted IL-8 level modulation vs positive control: −9.5%, p = 0.077
  secreted IL-10 level modulation vs positive control: −30.2%, p < 0.001
  secreted IL-12 level modulation vs positive control: 17.2%, p = 0.544
  secreted IL-17 level modulation vs positive control: −24.4%, p = 0.025
  secreted IL-22 level modulation vs positive control: −23.7%, p = 0.241
  secreted TNFα level modulation vs positive control: −34.3%, p = 0.232
100 ng/mL, LPS 300 pg/mL
  secreted GM-CSF level modulation vs positive control: 88.8%, p < 0.001
  secreted IFNγ level modulation vs positive control: −21.3%, p < 0.001
  secreted IL-1α level modulation vs positive control: 6.2%, p = 0.188
  secreted IL-1β level modulation vs positive control: 2.0%, p = 0.648
  secreted IL-6 level modulation vs positive control: 0.0%, p = 1.000
  secreted IL-8 level modulation vs positive control: 46.2%, p = 0.500
  secreted IL-10 level modulation vs positive control: −28.8%, p < 0.001
  secreted IL-12 level modulation vs positive control: 17.4%, p = 0.271
  secreted IL-17 level modulation vs positive control: −30.2%, p < 0.001
  secreted IL-22 level modulation vs positive control: −31.8%, p = 0.003
  secreted TNFα level modulation vs positive control: −13.1%, p = 0.581
LPS 150 pg/mL
  Decreased secretion: number of treatments with statistically significant modulation: 16
  Increased secretion: number of treatments with statistically significant modulation: 1
LPS 300 pg/mL
  Decreased secretion: number of treatments with statistically significant modulation: 12
  Increased secretion: number of treatments with statistically significant modulation: 2
